The record followed here is the DeepSol protein solubility set.

The nature of the data set: soluble on expression in E. coli; label from the status in PepcDB or PDB records.
Regarding “MTTIFKLLRLPKNTIFQVLRQFKCLDLIAFSVCSKYAKSCVMYSTTSNKQKTIRIEFDDTIQFDLSPITKHICLFELLADQRNVLRKNFNECEMIINGNNFIRTEWSIAGFAIKDWMKHFLDIFGGPKIDIISFSGKGFNRTWFPRDLFRIFNAQSFYCVIDFILKILRSFQYPESLTTCKGKSLGRKPLNTIFILNFKSVKYYGRHQFQLTLNQLLAMNISTLKLLDSAISSKNLNFFLKHWLNGSNKRLEVLEIFGLNAYSPTIIFKNVAYQVILEDEIFSIYNEVFTFGYEIERSCDETRAAIFINSMPEVSHYCFRMIVGEVPNYLIIY”, the “soluble on expression in E. coli” value was “not soluble”.
As for “AGGPGSRARAAGARGCRLRSQLVPVRALGLGHRSDELVRFRFCSGSCRRARSPHDLSLASLLGAGALRPPPGSRPVSQPCCRPTRYEAVSFMDVNSTWRTVDRLSATACGCLG”, the “soluble on expression in E. coli” value was “soluble”.
In the case of “MGSDKIHHHHHHMDGSSQEGEKKKKVYEVKTFPISFALGENQENITITTQTPSKPSKEKKFHKARMLHKQGKIAEAKKYYQQLINEGFNDHRVFSNYGVILAQLGKLKEAEISTRKAIEMQPNYAEAHSNLGIILNDLGKLEEAEICQRKAIKIKPNLTGAAWNLYGLANTIKEAEERVNQVLKIDENHVEAQLHLSALKLHQGDQSLFDNLTKSTHKDHAITRSIKWVANLPKLPELFFYRWALFDSMTKKSKKDRPFYEFGVWRGASFRYLINTFKKGYGFDTFEGLPEDWHHEAQGTYSAEGIIPNIEGGEFIAGKFEDTLPTFYSKPRPMASIINFDADLYSSTLCALNCSKPVIDKDTILIFDEFIISENWEQDEYKALNEFCSKNNLTYEVLAVSYFEKQVAVKLIGV” it was “not soluble”.
With “MGSDKIHHHHHHMPFENAPHLVFWEVTKACPLSCKHCRANAIDKPLPGELSTEESKKLLEDIARFGKVVIVFTGGDPLSRSDIFEIMEYAKSLGLIVSIAPSPSYRLRDETMKMISNYARYMSISIDGATSQTHDWLRGLGSYNYALRGIELGLKYGIQVQVNTLVWKKSYSELPFLVKLLKELGVKVWEVFFLIPVGRGVIELDIPKEKYKDVIDFLVETTRYDLVVRTVEAPFFRRAKLEYTPSTIKSNELVSKLRELLGEPVKDVDKSVLPTRDGSGVIFIGYNGDVYPSGFLPLYLGNVRKESIVDIYRKSEVLKIIKDGRFDGKCGVCKFNNICGGSRARAFAVYNNPFAEDPMCPY” the entry was “not soluble”; with “MSLKGDYFFMDRRPLILVAEENLHNLELLNSHMKTLNYDCICAKQGVRAIILAQTQKPDLIILDMILSDLSGSQVINHLKQDSKTANIPIIAVIPFILVQNQDHLFLTGADDYITKPYNFIQLNTLITHYVNRRHSSSLLSEGHHHHHH”, “soluble”.
With “MTDQPDLFGLAPDAPRPIIPANLPEDWQEALLPEFSAPYFHELTDFLRQERKEYTIYPPAPDVFNALRYTPLGEVKVLILGQDPYHGPNQAHGLSFSVRPGVRVPPSLRNIYKELTEDIPGFVAPKHGYLRSWAEQGVLLLNAVLTVRAGQANSHQGKGWEHFTDAVIKAVNAKEERVVFILWGSYARKKKKLITGKNHVVIESGHPSPLSEQYFFGTRPFSKTNEALEKAGRGPVEWQLPATVTEE” the entry was “soluble”; with “MAHHHHHHMSHEGAPQGEYVAILDAGSQYGKVIDRKVRELHVETSILSLNTPAEKLRNDANLKGIIISGGPSSVNDATSLAYDRAIFSMGKPVLGICYGMQMLTELYGGEVCRGKVREDGQDNIQVDTSSPIFAGLESTEAVLLTHGDSITAVGSELKVIARSSAGIISAVQHRSRPLFGVQFHPEVELTVSGKTIFKNFLQLCRCNFSFTMEDREAVALRLIRERTSGGQKVLCLASGGVDSTVCAVLLLKALGPERVVCIHIDHGFMRLNESVQAVEALNAAGVRVHLVKAQEDFAQASTEMTAKGSRAAYTTNKLREVTDPEEKRNIIGNTFMTVCDRVIKELQLDVENLLLAQGTLRPDLIESGSKYASVNAAAIKTHHNDTAVVRLLRDAGRIIEPLCDYHKDEVRELGARLGIPCRLLERQPFPGPGLAIRTLCTDGTPFRDGNFEDTQTTVKRVCMGADASSAEVAALAQKATLSACILPVRTVGVQGDGRTYAYAAALSMQTFPTAEQWATLIQLAKEIPKTAHAVNRVVFMFGPPQSESPSTVTPTYLTTDVLEKLRVADDKVNSILMKHQLVRSLSQVPIILIPIGFDKAGGYSVVVRTFLTNDFMTGIPATPGTAFMPLAVLEEIFNEVQKLEFVGRVMYDLTAKPPGTTEWE”, “not soluble”; with “MGSDKIHHHHHHSDIATSVTQGGEQRLADGGYFELGASVYGTNQLDIRQTEHESIQPSLLISGMYQYKGLFAEMVHQSQDGINFGINLWSSNNWSLDLLAVNYQGSAGRSENTELSQLDEDGRNAYLMETDSIFIGAGFRVTRYWDDHYVFQYRIVSDYFDDQGISTTARLGKSWQVRNWNFHALASIEYASTKLSRNLFGVESMEATELFPEYRPSSAVTYGMELGVAYPLSEKLVFRTVYRLNVLSKEITASPFNQADYGSFFNASFSYVF”, “not soluble”.
In the case of “GDYERILYELEGMYQFGKRSHLDISAFSIASGVGYQLPLPMNPQFWLRYDFASGDKNHRDGRSNTFNQLFPFGHYYFGYIDQVGRQNIHDFNAQFTLHPQPWVTFLGQYHRFYLANKRDYLYNAAGAGTIRDITGQSGSHVGDEIDFTINFHLSRHQDVLLGYSKLFTGEFLKNTRPGVSPDLFYAQYNFRF”, the “soluble on expression in E. coli” value is “not soluble”.
Turning to “MEVLHKPVLLRESVEFLTENGGKIYVDCTLGGGGHAKEILKKRKDIFLIGIDRDEEAIEIAKENLKEFEGRFSIYKANFKDLDLVLKEEGIDKVDGFLFDLGVSMYQLKGERGFTFQEDQPLDMRMDKEQTLTACKVVNNYPERELIRILKEYGEEKFAVRIAKAIVQRRKKKPIETTGELVDVILSVVPEYYKHGKIHPATRTFQAIRIEVNKELESLKEALEKTPYHFNSKGRLVVITFHSLEDRIVKHFIKEKEKEGIFRIITKKPVTPSEEEIRENPASRSAKLRVAEKI”, the “soluble on expression in E. coli” value was “soluble”.
With “MSSDPWGRVDETGTVYVRTADGEQVVGSWQAGSPDEALAYFERKYEGLVVEIGLLEKRVKTTDLSAKDAQTAIDHIREQVDAHHAVGDLDVLRKRLDKLVETVAARREERKAQRAKQSDEARHAKESLVVEAEELAQSDQWRAAGERLRSLVDTWKGLPRLDRKSDDELWHRFSHARSAFSKRRKAHFASLDAQREDARKAKEKLVAEAEALSGSTDWGPTAARYRELMGDWKAAGRAQREHEDDLWNRFRGAQDVFFAARSSVFAERDAEQSENLKLKEELAEEAEKLLPISDLKAARAAFRSLNERWEAIGHVPRDARPKVEGRMHAVERALQESEEVEWRRTNPEARARAEGLTGQLQAAVDKLQGQIEAARSAGNNAKADKLQKELDGRQALLDQALKGLHEFGG” the entry was “not soluble”; with “MAHHHHHHMEESDEDDNIQVIVFGNSSEAKFDDFYREEDIKKEEIQDNINDAMVPNESNEQDKAQNEDVDLESKVQNATKENKVFMKYDYTHEKPWSNHGDKSMWFNYNFDEHTFKEWVQKHIDRKLEKQQNYQIENTDNYFFEDTFKGNMMNTSSVNNQSMQGIKSFPSKNMNPFNTSKLIEHNGSPNYTSNKMDKIKNNNNNNNNKNNSNSNNKNNSNNKNNSNSNNRSDINQTTTNTNNDLKQFQNLINFLKQNN”, “not soluble”; with “MSSATTNSKIIHATRQHVYEALTQKEALEFWLAPDQMTGKIHDFDLSVGGGYTMSLFYTDNSIKGKTSGNEDRYTSTFIELQPYEKVVHSITFQSEKKEFEEAMIMEVFLEEKGKDVTNVTIFFKNIPAGITPEDNEAGTKESLDKLARYLENNNRSASEKKLEHHHHHH”, “soluble”.
With “MGSDKIHHHHHHMVNQGVDISVIAPQSITRHLLKGDPLLAVDSEKKIGNRSYHIYRPKYLTLGNAPRWIQNILEWLRYKVILRVITKHNLKPDAIYGHFWQNAFDIRKYCYKNGTPLFVACGEGDTALEDLVNSLSFAEKKRLSNAVTGVISVSSLNKRKCIEYGLSKAEDIVVLPNSVNSSLFSDINPLNRNSLGVFDDDFLIVFTGGFIHRKGASRLAAAIDKIGDKRIKVIFIGKPVPGDDATPHCNGIVHIGALEHDDIPSYLSAADVFCLPTLNEGCSNAIVEAIACGLPIISSNLPFNDDILDSSNALLVNPESVDDIASAIKQLMDNSDLRQKLAEGSKEKAKSLRIEFRAKKIIEFINRQMQK”, the “soluble on expression in E. coli” value was “not soluble”.
With “MGIDVVMTNRRGEPPPELSTLPCFPFKWEQQGEQLPLAPAALEGVTHVLNGIPPDRQGEDAVALALLPQLEKLNLHWFGYLSTTGVYGDRQGGWVDETTPVNPQNLRSQHRVRIEQVFLNANLPTHIFRLPGIYGPGEGRNPIARILKGDVQLIDKPGHYFCRIHVADIVQTLERSLAQPTPQEIYNLSDDQPSESLPVLLEAYRLLGRPAPPAIPLEAANLSPMAQSFWRESRRVRNDKIKQALGVQLRYPSYREGLRAIARELGLEHHHHHH” the entry was “not soluble”.
In the case of “MTSYEEETDYRNVPRELLDNNIPMGRGMIKWAPFATLPEQFETIQQYIIDQNKITRPVLSDDQLAELNIRLHEALQYAQPVEVKFYNNGFVDSVRLTIYRIDAINYEIDGYVYNQQQRQKISIFDILDIVLLPLEHHHHHH” it was “soluble”; in that of “MGAYLNKPIIEKEKEEGSGNGLSYACTTMQGWRVNQEDAHNCVVDLHTDWHMFGVYDGHGGTEVSKFTSAKLPDFLKERKFWEADDVAECLQKAFVDFDDFIRAEESMKELKDIGDEGKPKKAGGEADSEDEADRIDTIEEASVPLAELLKRYGGAGVGKSLLSAFLAKGDVSDDSEDEDEDEEEAEEQDDTEEKKENEDASAEVVIENAEDKEEEEGSPKKKGQKRCQKSPIQSEAKKSKSETDAETAPSSSSGVDGVATEEEDEDDSDKEFVADEEEDDEDAEDEQSDEEMVDGSLAPLLLGSGGAEVPGEDSGTTACVCLVGKDKVIVANAGDSRAVLCRNGKAVDLSVDHKPEDEVETNRIHAAGGQIEDGRVNGGLNLSRAFGDHAYKKNQELGLKEQMITALPDVKIEALTPEDEFIVVACDGIWNSMESQQVVDFVRDLLAKGSSCAEVCDALCDACLADSTDGDGTGCDNMTVICTTFDRKSK”, “not soluble”; in that of “QLIFDDCVFAFSGPVHEDAYDRSALETVVQDHGGLVLDTGLRPLFNDPFKSKQKKLRHLKPQKRSKSWNQAFVVSDTFSRKVKYLEALAFNIPCVHPQFIKQCLKMNRVVDFSPYLLASGYSHRLDCTLSQRIEPFDTTDSLYDRLLARKGPLFGKKILFIIPEAKSWQKKIENTEQGQKALAHVYHALALGADVEIRPNVAHLECDLILTMDGNIVDETNCPVVDPEWIVECLISQSDIST”, “soluble”.
With “MRYSSRMPGSVMPGAGAHPRIPQVQTSVANSQILGYLGRALSLEFTAGQHYLAQASLAKFRQEISYAEGFITLANEEFQHANLITDRMVAQGALPAGSVLRPAGSANNIAEALKSCEEREIALIQLYTEATQYCANMGAQEDHALFSRLLEEEQSQLMRVQAWLQDYFQMMANTYQPDRSFV” the entry was “not soluble”.
As to “GPAIAENLYFQSPQLNGGGGDDLGANDELISFKDEGEQEEKSSENSSAERDLADVKSSLVNESETNQNSSSDSEAERRPPPRSESFRDKSRESLEEAAKRQDGGLFKGPPYPGYPFIMIPDLTSPYLPNGSLSPTARTYLQMKWPLLDVQAGSLQSRQALKDARSPSPAHIVSNKVPVVQHPHHVHPLTPLITYSNEHFTPGNPPPHLPADVDPKTGIPRPPHPPDISPYYPLSPGTVGQIPHPLGWQGQPVYPITTGGFRHPYPTALTVNASMSRFPPHMVPPHHTLHTTGIPHPAIVTPTVKQESSQSDVGSLHSSKHQDSKKEEEKKKPHIKKPLNAFMLYMKEMRAKVVAECTLKESAAINQILGRRWHALSREEQAKYYELARKERQLHMQLYPGWSARDNYGKKKKRKRDKQPGETNEHSECFLNPCLSLPPITGEKKSAFATYKVKAAASAHPLQMEAY”, the “soluble on expression in E. coli” value was “soluble”.
